According to PMC6138654:

Biological target: αβ-tubulin (tubulin dimer; as free tubulin, Tau-induced microtubules or Taxol-stabilized microtubules) (lamb (purified from lamb brains))

Tau F4 fragment labeled with MTSL (F4^MTSL), sequence (P10636 525-641): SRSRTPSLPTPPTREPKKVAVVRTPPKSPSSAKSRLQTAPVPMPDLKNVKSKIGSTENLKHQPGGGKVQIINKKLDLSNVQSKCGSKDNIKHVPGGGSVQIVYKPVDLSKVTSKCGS

| k of MTSL label release (thiol-disulfide exchange) by EPR, h(−1)/h(0) against time; Tau-MTs (induced), 10 µM labeled protein, 1:2 with tubulin, 37 °C [min⁻¹] | k of MTSL label release (thiol-disulfide exchange) by EPR, h(−1)/h(0) against time; Induced-MTs, 10 µM labeled protein, 1:2 with tubulin, 37 °C [min⁻¹] | k of MTSL label release (thiol-disulfide exchange) by EPR, h(−1)/h(0) against time; Taxol-MTs, 10 µM labeled protein, 1:2 with tubulin, 37 °C [min⁻¹] | Substance |
| --- | --- | --- | --- |
| 0.127 | – | – | Tau F4 fragment C322S mutant labeled with MTSL on C291 (C291^MTSL) (from UniProt P10636-8 208-324) (domain or fragment) |
| 0.077 | – | – | Tau F4 fragment C291S mutant labeled with MTSL on C322 (C322^MTSL) (from UniProt P10636-8 208-324) (domain or fragment) |
| – | 0.217 | 0.025 | Tau F4 fragment labeled with MTSL (F4^MTSL) (from UniProt P10636-8 208-324) (domain or fragment) |
